Test results: paper PMC10256154, “An unbroken network of interactions connecting flagellin domains is required for motility in viscous environments” (PLOS Pathogens, 2023)

Molecular target: the molecule itself
Experiment: SEC; Superdex 200 Increase 10/300 GL; recombinant full-length FliC proteins after NiNTA, PBS buffer

B1: full-length FliC Δ204–205 of P. aeruginosa PAO1, recombinant (natural protein)
chain: MALTVNTNIASLNTQRNLNASSNDLNTSLQRLTTGYRINSAKDDAAGLQISNRLSNQISGLNVATRNANDGISLAQTAEGALQQSTNILQRIRDLALQSANGSNSDADRAALQKEVAAQQAELTRISDTTTFGGRKLLDGSFGTTSFQVGSNAYETIDISLQNASASAIGSYQVGSNGAGTVASVAGTATASGIASGTVNLVGQVKNIAIAAGDSAKAIAEKMDGAIPNLSARARTVFTADVSGVTGGSLNFDVTVGSNTVSLAGVTSTQDLADQLNSNSSKLGITASINDKGVLTITSATGENVKFGAQTGTATAGQVAVKVQGSDGKFEAAAKNVVAAGTAATTTIVTGYVQLNSPTAYSVSGTGTQASQVFGNASAAQKSSVASVDISTADGAQNAIAVVDNALAAIDAQRADLGAVQNRFKNTIDNLTNISENATNARSRIKDTDFAAETAALSKNQVLQQAGTAILAQANQLPQAVLSLLR
notes: Cloned in pET28-a with a C-terminal polyhistidine tag; source: E. coli BL21(DE3), purified (NiNTA, size-exclusion chromatography)
- stoichiometry N: 2
